Measured values from the domain aggregation screens of Martell et al. (2025).

Assay: soluble fraction after stress (log2 fold change); higher = more stays soluble; pooled small domains, quantitative proteomics
Conditions: stress: 75 degC
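Also: 20 min heating vs room temperature control held 20 min.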

Sequence | soluble fraction (log2)
HMLIDQYPYSIIYRLIPHGRSNAVPAAQIVGLTKLDERSIRIYVEAMRREGHIIASSSKGYYFPASIEE | -3.2
HMLIGLNETESLVLDALIANPMRIDQVSAMLKKDVATTLKFLGGLSVRGLVETLFGGRFAPTKIALHARS | 0.0549
HMLIIMNSDATKEQVDHVTSRVREAGFKDHIMPGAGKVAIGVTGTGDYDQTKLHLEILPGVFKIMRITK | -0.816
HMLIPADETEAKVLSVLSREPLHVDEIRNQAGLPIEKISATLALMELKGMVRQVGGMNYVSV | -0.044
HMLKDKLSDKDFDFYKNKIQIQLQGNPTELKELVRRFSSTEEQQILKTIDYMLDNGFLRIDEDNMIYWK | -0.0419
HMLKDQSIAQLEKNLDDLKGLMRKMFGSSDVPKITKMISDIESSLANFNQSKANKLIVQTTNYISSKL | -0.664
HMLKEDSAYELGLRIFDQALNDYGTSFIDLKEDEYKKVLSIYGYSNPRQLIINIGLGNVIPHLLARDITE | -1.34
HMLKEGIKEKINQLQVYADKNDNIIWYDRVVDILSDKDDSVTDEMIEAAIRTLEEAGISVERKQ | 0.0727
HMLKEGQYSPNHFHWHKMEDIINRGGGTLLIRVYNSLPDEEIDRESDVTVHMDGVTRTVPAGTQLRLE | -0.124
HMLKETGVITASVLNVREDIGTSSNIVAQLKKGMEVNILESRAIAGSETWYRIDAGSIKGWIFGDYI | -3.37
HMLKFGLSQRELQILALLPTDEPLSILAKSLFISESTLKTHLTHIYRKLGVKNRLQAINVARKAGLLK | -1.59
HMLKHSKQRDAIEQFLATRYDHPTAETVYMNLREEYPKLSLATVYRNLSLLAELGNIQKIPTGNGPDRFDG | -0.343
HMLKIAENIYQRRKEKNITQEELADFMMVTKASVSKWETGQSYPDILLLPKLATFFNVTVDELIGYEPQ | -2.72
HMLKIVRSREEVESRLYTIYGNVKGRRLYNFYLSLIIDGLDIVKARTSKNVYYTNIRNLKNAGIDFSQKIN | -2.28
HMLKPKDLHLGDSVRVLSLNLKGTVSSLPDTKGFLFVQMGIMRSKLHISDLQLIDEPVITAP | -2.23
HMLLFSVADIVKRSKRILSFKTDAELAAYFGVSRSTLSNWIARNSIDFPLLLSKMKDVDYTWLILGKGTPG | -3.97
HMLLLHINQMGVTEFSQLELNHVRSWLANLQIKGAARSSITRRVVSVRAFTYWGAKNGWLASDIGRDLVAP | -0.459
HMLLRVGGLVKDGSVRTDNDLGIKFIIEDNLAEVSVLYNGILPDLFREGQGVIAEGKFIDNIFIANEIVA | -0.682
HMLLSHTAQREGELLTFLRGELALSSGLVKRLKWQNAFFLDGAPVHTNARVKPGQEITVRIEE | -1.59
HMLLTEETLPQLKQIVDEFPYFQIARMLYLKNLAVLNDIRFSVELKKMSIYVPDRRKLFTLIEGE | 0.044
HMLLTLPEDIITMVRQGTLSAGHARVLAGLESDEMKMTLARQTITNEWSVRQLENAVALMRKS | -0.906
HMLLTPLEETRLVIEEIVIPQKLTIDLLPRSSAIRKLQHELITHYQLRGTSVGNEPNRRLRIYP | -0.121
HMLMNADVLVKYQEDHWIVISEKASQASDTFDKKEQAVERAKEIAKNKNSSVKVYKQDGTLQDTFDYS | 0.351
HMLMSDEENAEFTKLYRQLVFKLHPDLNPNQTKDEENLWHKVQMAYKGGDLEEMRSLAIILDAQ | 0.0885
HMLMTGSLQTKHGKYYVVVRIPDGLGNTKAKWINTGIPTDGNNKRKAQQRRIEILTELEENKD | -2.47
HMLMYAQDEKEEASNNIPYRLLHMSFTKEQKAELQRAMDVRVPKDIILSYFYPDTPVARMMEIRRQYESA | -0.814

Sequence | soluble fraction (log2)
HMLNDKLQTLFSLFPAVDKDLKKKGVTRQILWEQYKRNHPDGVGRSQFNYYYAQWKDQVNPT | -1.02
HMLNDMYAVMEIRGQGGELIAKLINQDGSPFYVKKGTTLQSGHVIDEITTTYVRAEKAGAKDYLYF | -0.939
HMLNDTGAIRAAVEEVLAANEKSVNEYKGGKTQAFQYLIGQSMRALRGKAPAQEVTKLLKELLG | -0.564
HMLNQIGVSQKEFDQIHTAIKIALKTSSLTPTGITEKLPKFPPEKTADILRWMADNKEVLLNSEEKYELKT | -0.297
HMLPAGAAAPLEDGSAPEGYTVKGNADSGLYHEPDGRWYDATVAEFWFKTAADAEAAGFRKAGS | 0.149
HMLPDGEAFVKVNTSLNIRTGPWGQIVGWFHNNDKVKIIGRDGDWYKISHNGQTRYIHSRYVSSSR | -1.2
HMLPDHAPITMRQLAMLHVAKNKLDLTDEDYRSLLLLYGGVESSKQLNQEGLRRVLDRFKELGFEP | -0.45
HMLPDLLNGRVIPSPEKVIRARLNRGVWELLVQWVGRAPSDATWENLLEFKSAYPSVQLEDALF | -1.97
HMLPDLQKAIDTFLYEVDSRINTSFEELIDKLNSKEEAVAFFLALLEAVRWGFIKAEQESNSINIKK | -0.898
HMLPDSQLMKEATAWFMRQAADDFSGAERRRLDAWRAQSPAHARAYHQVQALWNAPELQQAAAR | -0.113
HMLPEGIENGDVLTRTDALDYRKWLVTGNQKRIFASTASFYGENFNYSEVKAVSDRVLDAIPDGEPV | -0.0413
HMLPFGHTRLEDGTIQEIPEQIALARKVAEMYKAGFPVMQISIKTEGLLTPRQIYGLMNHWGVKR | -1.3
HMLPIKLDLEIGENVRVVSGPLENFVGSVVSFDTDQQKVKLVVEMFGRKTPVELDFIEVQKLR | -2.24
HMLPIMDRLITAGISINTAKKWVDKFGDKRIKQNLAYSLAKQKEGKVKTNFVGYLAKAIEEDWGSGWE | -1.5
HMLPKAERREQLMAVARSVFAEQGYHTTSMEIIAETAGVSKPLLYQHFPSKLDLYLALLDAGID | -1.8
HMLPKILVMDGKVNKNALTTLGKDEEWVKKVLRNHNIHSIKDVLLALYDTKGKFQYQLYDDYEK | -0.248
HMLPKNITNTIDHWIQKFPQGKQRSAIIAALHAVQHHNKGFLTNDLLNQVADYIDVPKMNVYEVATFYSM | 0.169
HMLPLIEVPAVTGKYLTKAKSALKDAGLDTGDIKRVEHEEHGENYVLKQDPPAGTKVPFGTTVSLTVVAP | 0.427
HMLPLLEYLDPFTGKKTYTYLNPDTQHPIFTYYSYQDDKTGRTAYSYIDPLTGKAVNSDEPPMDILYD | -0.676
HMLPPHMEVRAIMILDKRPMALMNIEGEGDGLIVSPGYRFGDGRGRVVSITQTKVVVLWAGTSMEL | -2.82
HMLPQYELIKQYLRHQIETGEWPIGYRTPSEPKLAEQFSVSRMTARRALQELADQGLLSRTAGSGTFVAKP | -0.921
HMLPVQGEEVAPGLYKFDFPFLADKRVWEKTINAFKAEHPELKVNYIYTGPDELNSKKKTHVLVYVFTES | -0.539
HMLPVYSITEAAERLDIPASTIKWYADRFASYISPSKGKGRKRFTPEDLATLQKIHELSQDHTTEEAEAML | -0.0974
HMLPYKGTVAVSLAVLHKAVGVGTADMLKAVGTLRQGTEVTVTGRNGPFAQLKNGLWMKESFLE | -1.07
HMLQADALADPVGWALRTLGFDLEAGTPERSAIQRSFRQSLIEAHPDHGGADDEAAQRIADITEARRILLA | -0.403
HMLQFTYPRLHTKKSWYVDFMSFDPGAGKMRRKKFMLDGIPKITDRRKRAAELIEVLTKQLRAGWSPWVNV | -3.85

Sequence | soluble fraction (log2)
HMLQIADEYLDRLQALFEDVRDNHFAIGDLLVELVDMHDSRRVDVINYIAGRLAISPTTLYDYENTARR | -1.15
HMLQLDATDRALIVATQGGLPLVPRPYQVVGEQLGISGEEVVARLRALLDAGVIRRIGAVPN | -0.569
HMLQLKEPLKKVYERLTPVPKTAETILAELWEKGEYLDIAALHRALMELELSGYVRQSSPGYFGTSA | -0.553
HMLQQKESAALGERLLNQALATLKVEPDAISWDRWEALAKEYGAKSQLDILADIGLGKRLSFVVAQALTKV | -1.25
HMLRDMIIQSYRYYTDKERNPRQVWNRMEADAFWEIIRDYEGYNGDGYVHTKIIPEMEALTVIEMDN | -1.83
HMLRISLAAARVNAEMTQEDVAREMHVSKNTVVNWEKGKSEPTISQSRELSKLYNMPLEYIFYL | -2.68
HMLRKTTDLDAIRSVAKDVIDQNPKAVEDYVGGKESAIGFLLGQVMRATKGTADANTVRELLKEILDS | 1.01
HMLRPMVAILNKNISKGQVISEDYIKFEVRPERQIHGAYHDISEVLGRKTKNNIAAGTILKVRHLDT | -0.69
HMLRQVSDSNALETAVKKVLDANPEEVERYKSGNKKLISFFVGQTMKATKGAGNPKEINSILAKLL | -0.326
HMLSAEAAAARTAISTLSEDQQRVLGLSIQRGLVHEQIARATGLPLGTVKTHIRRGLIKVREALEAQAAG | 0.00212
HMLSAGETYTLGYLKASDGILFTAADGSEQTVMQRVQVRLYDNGDGTYTARLADDIAYSAVVTEDMIDK | 0.27
HMLSDAAAMESIAYEAIRQMEPDTYYIIGAGTTTRGIMEVLGLKNTLIGVDLIRNKELVANDLGGKELLSY | 0.0782
HMLSDEDMMELAIIENLQRENLNPIEEARAYESLIDKGFTHTEIADKMGKSRPYISNSIRLLSL | 0.355
HMLSDFHLNHDSIVNHTVQKKETIFSLSKKYGLSINEIIKANPGIQIDKLKRRSILIIPLRKK | -1.81
HMLSDLTPGDLVVHATHGIGRFLGIRKLELEGMTKDYITIQYRGNENLYVPVTQMDLVSRYI | -1
HMLSGGEVKRIEIATILARKSGLMIFDEPEAGIDLWSFARLVETFEDIRSNTSGSLVIISHQ | 0.0709
HMLSKEERRSQLLDLGVRLLSTRSLDELSIDLLAEEAGISRGLLYHYFGNKHDFHEAVVRRAADDLI | -2.15
HMLSLKAQVYEIIRQKILQQEYALGEKINIDTVADELKISNSPIREALMMLSQDGLIEMVPNNGARVI | -1.88
HMLSLSDIINDVMERLTREKNLTFDELLGEKRERRRIVYTFLALLELIRLKMIKAYQTAAFGVIRIFPR | -1.4
HMLSLTSRQQEIFDLIKGHIKKTGMPPTRSEIALHFGFRSANSAEEHLRALARKGFIELIPGTSRGIKLIE | -1.87
HMLSPPWYEYHRKVQAMFGRDPEVHIKDLDDLGDGKFSYMILVYNKEKAEAIKAILPQKVEMGNVTIETAI | -1.87
HMLSRNEWLVMEALWERPSTLMELVRQLGQEPPGWAKSTTATMVRRMEEKGLIRHEAGSKARVYHP | -1.82
HMLSSAAAIDRILAGGTAAMNHRQFDAALTSFNTVIEMRPDFAEGWNKRATLYYLIGEYERSIADVERTLA | 0.183
HMLSTRERMSSLMAQLQVQQFMPFHRLFTISEGRMGVIVTFLAMMELVKENLIKLIQAQEYGPIHVSLG | 0.467
HMLSVRERMSAILVSLEGERYADFTGLFDPTEGKGGVTVTFLAILELLKESMIDVVQNELYGPIHVRAA | -1.07
